Molecular target: the molecule itself
Test: native gel or EMSA; BN-PAGE of purified proteins on polyacrylamide gradient gels, run at 4°C, Coomassie stained; Bfr2 and Bfr12 ~22 μM, Bfr1 ~30 μM in 50 mM Tris-HCl, 50 mM NaCl, pH 8.0, or Bfr12 dialysed against 50 mM imidazole-HCl, 50 mM NaCl, pH 7; for Bfr12 also a second dimension of SDS-PAGE (2D-BN/SDS-PAGE)

B1: Bfr1 of MSR-1 expressed alone from pET-51b-Bfr1 (natural protein, Magnetospirillum gryphiswaldense MSR-1, UniProt A0ACM8UIY5 1-159, looked up)
chain: MRGSPKVISVLNGLLTGELTAADQYFVHARMLENWGFKVLYERIEHERHDELDHAGLLINRILFLEGVPDVASRAALNIGSDVPKMMANDLAYELQVVDELKAAIALCESERDYDTRRILVHLLEETEQDHVRWLEVQVGLIDKLGLKNYLQSAAGEIA
notes: bacterioferritin subunit Bfr1, Magnetospirillum gryphiswaldense MSR-1, locus MSR1_27050; expressed without Bfr2
Question: Which “stoichiometry N” value does the source give for B1 here?
Answer: 3

Source: paper PMC6529640, “Bacterioferritin of Magnetospirillum gryphiswaldense Is a Heterotetraeicosameric Complex Composed of Functionally Distinct Subunits but Is Not Involved in Magnetite Biomineralization” (mBio, 2019)
